In US20260015399A1 (Boehringer Ingelheim, published 2026):
Each block holds one binder with its values, some of them ahead of it. *1 amine or outer side, *2 acyl side, *3 side chain or, on linkers, in order; H or OH if unused. Side-chain parts run from the residue outwards. The star is where a group is joined. C18 diacid = O=C(O)CCCCCCCCCCCCCCCCC(=O)*; γGlu = O=C(O)[C@H](CCC(=O)[*:2])N[*:1]; Isovaleryl = CC(C)CC(=O)*; Ahx = NCCCCCC(=O)O

Legend:
human NPY2 receptor [1] = biological target: T1, human NPY2 receptor (human, UniProt P49146 1-381); assay: cell-based or functional assay
T1 sequence (looked up): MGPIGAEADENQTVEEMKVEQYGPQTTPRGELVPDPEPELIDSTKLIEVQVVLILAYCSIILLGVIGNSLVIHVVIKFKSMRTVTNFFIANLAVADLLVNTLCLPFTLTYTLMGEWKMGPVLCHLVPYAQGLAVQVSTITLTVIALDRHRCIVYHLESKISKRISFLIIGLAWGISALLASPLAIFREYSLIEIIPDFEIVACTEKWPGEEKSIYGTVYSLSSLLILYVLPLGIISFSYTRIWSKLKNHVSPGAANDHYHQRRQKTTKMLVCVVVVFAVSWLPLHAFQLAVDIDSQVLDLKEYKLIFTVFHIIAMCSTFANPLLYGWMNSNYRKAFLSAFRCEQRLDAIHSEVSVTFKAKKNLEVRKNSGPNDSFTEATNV

human NPY5 receptor = biological target: T2, human NPY5 receptor (human, UniProt Q15761 1-445); assay: cell-based or functional assay
T2 sequence (looked up): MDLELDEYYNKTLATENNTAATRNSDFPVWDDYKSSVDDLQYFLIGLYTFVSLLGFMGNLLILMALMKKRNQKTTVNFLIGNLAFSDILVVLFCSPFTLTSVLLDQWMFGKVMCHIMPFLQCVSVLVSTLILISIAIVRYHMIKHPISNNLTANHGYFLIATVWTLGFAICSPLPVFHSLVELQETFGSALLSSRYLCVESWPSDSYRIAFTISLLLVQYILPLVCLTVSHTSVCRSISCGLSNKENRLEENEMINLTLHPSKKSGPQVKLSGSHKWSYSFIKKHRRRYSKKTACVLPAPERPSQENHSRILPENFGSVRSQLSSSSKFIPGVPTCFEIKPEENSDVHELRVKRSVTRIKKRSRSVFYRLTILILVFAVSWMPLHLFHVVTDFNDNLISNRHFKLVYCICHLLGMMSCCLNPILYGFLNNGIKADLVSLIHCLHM

human NPY2 receptor [2] = biological target: T1, human NPY2 receptor; assay: RLB: displacement of 125I-PYY(1-36) from hNPY2R membranes

EC50, HTRF cAMP Gi assay (human NPY2 receptor [1]): 0.31 nM | EC50, HTRF cAMP Gi assay (human NPY5 receptor): > 5000 nM | Ki (human NPY2 receptor [2]): 2.81 nM
B1: Compound 16 (peptide)
peptide: Isovaleryl-APEK([Ahx-γGlu-C18 diacid])PEEDATPEELQKYYVSLRHYYNWLTRQRY-NH2
SMILES: CC(C)CC(=O)N[C@@H](C)C(=O)N1CCC[C@H]1C(=O)N[C@@H](CCC(=O)O)C(=O)N[C@@H](CCCCNC(=O)CCCCCNC(=O)CC[C@H](NC(=O)CCCCCCCCCCCCCCCCC(=O)O)C(=O)O)C(=O)N1CCC[C@H]1C(=O)N[C@@H](CCC(=O)O)C(=O)N[C@@H](CCC(=O)O)C(=O)N[C@@H](CC(=O)O)C(=O)N[C@@H](C)C(=O)N[C@H](C(=O)N1CCC[C@H]1C(=O)N[C@@H](CCC(=O)O)C(=O)N[C@@H](CCC(=O)O)C(=O)N[C@@H](CC(C)C)C(=O)N[C@@H](CCC(N)=O)C(=O)N[C@@H](CCCCN)C(=O)N[C@@H](Cc1ccc(O)cc1)C(=O)N[C@@H](Cc1ccc(O)cc1)C(=O)N[C@H](C(=O)N[C@@H](CO)C(=O)N[C@@H](CC(C)C)C(=O)N[C@@H](CCCNC(=N)N)C(=O)N[C@@H](Cc1c[nH]cn1)C(=O)N[C@@H](Cc1ccc(O)cc1)C(=O)N[C@@H](Cc1ccc(O)cc1)C(=O)N[C@@H](CC(N)=O)C(=O)N[C@@H](Cc1c[nH]c2ccccc12)C(=O)N[C@@H](CC(C)C)C(=O)N[C@H](C(=O)N[C@@H](CCCNC(=N)N)C(=O)N[C@@H](CCC(N)=O)C(=O)N[C@@H](CCCNC(=N)N)C(=O)N[C@@H](Cc1ccc(O)cc1)C(N)=O)[C@@H](C)O)C(C)C)[C@@H](C)O

EC50, HTRF cAMP Gi assay (human NPY2 receptor [1]): 0.181 nM | EC50, HTRF cAMP Gi assay (human NPY5 receptor): > 5000 nM | Ki (human NPY2 receptor [2]): 12.6 nM
B2: Compound 23 (peptide)
peptide: Isovaleryl-APEK([Ahx-γGlu-C18 diacid])PEEEASPEELQRYYVSLRHYYNWLTRQRY-NH2
SMILES: CC(C)CC(=O)N[C@@H](C)C(=O)N1CCC[C@H]1C(=O)N[C@@H](CCC(=O)O)C(=O)N[C@@H](CCCCNC(=O)CCCCCNC(=O)CC[C@H](NC(=O)CCCCCCCCCCCCCCCCC(=O)O)C(=O)O)C(=O)N1CCC[C@H]1C(=O)N[C@@H](CCC(=O)O)C(=O)N[C@@H](CCC(=O)O)C(=O)N[C@@H](CCC(=O)O)C(=O)N[C@@H](C)C(=O)N[C@@H](CO)C(=O)N1CCC[C@H]1C(=O)N[C@@H](CCC(=O)O)C(=O)N[C@@H](CCC(=O)O)C(=O)N[C@@H](CC(C)C)C(=O)N[C@@H](CCC(N)=O)C(=O)N[C@@H](CCCNC(=N)N)C(=O)N[C@@H](Cc1ccc(O)cc1)C(=O)N[C@@H](Cc1ccc(O)cc1)C(=O)N[C@H](C(=O)N[C@@H](CO)C(=O)N[C@@H](CC(C)C)C(=O)N[C@@H](CCCNC(=N)N)C(=O)N[C@@H](Cc1c[nH]cn1)C(=O)N[C@@H](Cc1ccc(O)cc1)C(=O)N[C@@H](Cc1ccc(O)cc1)C(=O)N[C@@H](CC(N)=O)C(=O)N[C@@H](Cc1c[nH]c2ccccc12)C(=O)N[C@@H](CC(C)C)C(=O)N[C@H](C(=O)N[C@@H](CCCNC(=N)N)C(=O)N[C@@H](CCC(N)=O)C(=O)N[C@@H](CCCNC(=N)N)C(=O)N[C@@H](Cc1ccc(O)cc1)C(N)=O)[C@@H](C)O)C(C)C
